Source: PMC11138481 (Molecular cell, 2023)
Ends that are not written are not given here. * marks the point of attachment. Crotonyl(E) = C/C=C/C(=O)*

Key:
[1] = biological target: GFP-GAS41 H43S protein (recombinant) (human, UniProt O95619 1-227, H43S); assay: MST
[2] = biological target: GAS41 YEATS domain (residues 11–150) (human, UniProt O95619 11-150); assay: ITC
Sequence of GAS41 YEATS domain (residues 11–150) (O95619 11-150): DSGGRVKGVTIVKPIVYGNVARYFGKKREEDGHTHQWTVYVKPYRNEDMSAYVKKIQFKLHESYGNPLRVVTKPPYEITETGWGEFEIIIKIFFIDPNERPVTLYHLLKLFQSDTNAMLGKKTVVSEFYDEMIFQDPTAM

Sequence of GFP-GAS41 H43S protein (recombinant) (O95619 whole entry H43S, the tested form may be a part): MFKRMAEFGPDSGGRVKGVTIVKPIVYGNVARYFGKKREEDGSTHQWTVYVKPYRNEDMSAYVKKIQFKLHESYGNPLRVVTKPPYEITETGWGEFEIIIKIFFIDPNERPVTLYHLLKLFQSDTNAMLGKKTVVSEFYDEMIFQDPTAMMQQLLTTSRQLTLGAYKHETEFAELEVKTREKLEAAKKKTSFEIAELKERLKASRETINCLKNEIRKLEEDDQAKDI

| Binder | fold reduction in binding against GAS41 wt [1] | Kd [2] |
| --- | --- | --- |
| ATKAARK(Crotonyl(E))SAPATG [Synthesized H3 K27cr (a.a. 21-33) peptide] | 6 fold | 22.9 µM |
| ATKAARK(Ac)SAPATG [Synthesized H3 K27ac (a.a. 21-33) peptide] | ~2 fold | 51.5 µM |
